{"source": "paper PMC5066087", "about": "“In Vitro Bioconversion of Pyruvate to n-Butanol with Minimized Cofactor Utilization” (Frontiers in Bioengineering and Biotechnology, 2016)", "key": {"purified protein [1]": {"substrate": "CC=O", "experiment": "purified protein", "assay_type": "biochemical, Geobacillus stearothermophilus", "details": "0.3 mM NADH, 2.5 mM MgSO4, 100 mM HEPES pH 7, 50°C, acetaldehyde 0.01–0.14 mM"}, "purified protein [2]": {"substrate": "CCCC=O", "experiment": "purified protein", "assay_type": "biochemical, Geobacillus stearothermophilus", "details": "0.3 mM NADH, 2.5 mM MgSO4, 100 mM HEPES pH 7, 50°C, butyraldehyde 0.8–3 mM"}}, "data": [{"protein": "ADH (ADH-HT) (Geobacillus stearothermophilus) (protein, codon-optimised synthetic gene in pET-22b (NdeI/XhoI), C-terminal His-tag, expressed in E. coli, IMAC purified) MKAAVVEQFKEPLKIKEVEKPTISYGEVLVRIKACGVCHTDLHAAHGDWPVKPKLPLIPGHEGVGIVEEVGPGVTHLKVGDRVGIPWLYSACGHCDYCLSGQETLCEHQKNAGYSVDGGYAEYCRAAADYVVKIPDNLSFEEAAPIFCAGVTTYKALKVTGAKPGEWVAIYGIGGLGHVAVQYAKAMGLNVVAVDIGDEKLELAKELGADLVVNPLKEDAAKFMKEKVGGVHAAVVTAVSKPAFQSAYNSIRRGGACVLVGLPPEEMPIPIFDTVLNGIKIIGSIVGTRKDLQEALQFAAEGKVKTIIEVQPLEKINEVFDRMLKGQINGRVVLTLEDK", "values": [{"measurement": "Km", "setting": "purified protein [1]", "result": "65 ± 5", "unit": "µM"}, {"measurement": "kcat", "setting": "purified protein [1]", "result": "141.44 ± 14.52", "unit": "s⁻¹"}, {"measurement": "Km", "setting": "purified protein [2]", "result": "1430 ± 160", "unit": "µM"}, {"measurement": "kcat", "setting": "purified protein [2]", "result": "49.16 ± 3.8", "unit": "s⁻¹"}]}]}
